Experimental data from publication PMC3742519.

Target: subtilisin A (Bacillus licheniformis) (Bacillus licheniformis) (UniProt P00780)
Experiment: enzyme inhibition kinetics (Lineweaver–Burk); substrate (AAPF) added to an equilibrium mixture of subtilisin A and rEs-DWD1; competitive inhibition, inhibitor at 0, 2.5 and 5 μM; 0.1 M Tris-HCl pH 8.0, 37 °C; p-nitroaniline read at 405 nm

Chain of UniProt P00780 (P00780 106-379): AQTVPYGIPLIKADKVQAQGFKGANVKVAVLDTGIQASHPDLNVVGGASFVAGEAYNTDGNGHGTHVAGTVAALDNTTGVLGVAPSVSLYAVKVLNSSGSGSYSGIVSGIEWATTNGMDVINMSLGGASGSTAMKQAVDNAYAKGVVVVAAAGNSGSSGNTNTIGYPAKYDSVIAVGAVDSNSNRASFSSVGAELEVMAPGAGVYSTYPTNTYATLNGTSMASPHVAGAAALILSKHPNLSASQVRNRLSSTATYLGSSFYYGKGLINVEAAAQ

Ki: 4.12 nM
Substance: recombinant Es-DWD1 (double WAP domain-containing protein from Eriocheir sinensis) (natural protein)
